Reference: patent US10471162B2, “Collagen targeted imaging probes” (priority 2014, dated 2019)

How the values were obtained:
[1] = tested on: pulmonary fibrosis, C57/BL6 mice (bleomycin or sham); assay: in vivo; type: in vivo, mouse; conditions: male, C57/BL6, mouse, in vivo, iv, 2.5 h
Procedure: (§1) Pulmonary fibrosis was induced in 7-8-week-old male C57/BL6 mice by transtracheal administration of bleomycin (BM; 2.5 U/kg) in 50 μL of PBS under direct vision using a small cervical incision. Sham animals received only PBS. Animals were placed in a small-animal PET/SPECT/CT scanner (Triumph; TriFoil Imaging), equipped with inhalation anesthesia and heating pad. Each animal was anesthetized with isoflurane (4% for induction, 2-2.5% for maintenance in medical air) and body temperature was kept at 37-38° C. using a heating pad. The femoral vein was cannulated for intravenous delivery of the PET agent. Each mouse was injected with approximately 0.1 mL and 20-50 μCi of ^64Cu-CBP(n), 0.1 mL and 20-50 μCi of ^68Ga-CBP(n) and 0.1 mL and 10-20 μCi of Al^18F-CBP(n) in a 18 mM solution of sucrose in water, followed by saline flush. […] The lungs, blood, urine, heart, liver, left rectus femoris muscle, spleen, small intestine, kidneys, left femur bone were collected from all animals. The tissues were weighed, and radioactivity in each tissue was measured on a gamma counter (CobraII Auto gamma; Packard). The radioactivity in the lung was reported as percent injected dose per gram corrected with the average sham weight, which was calculated by dividing the counts of ^64Cu per average sham tissue weight in gram by the total of counts of the injected dose. The radioactivity in every other tissue was reported as percent injected dose per gram (% ID/g), which was calculated by dividing the counts of ^64Cu per gram of tissue by the total of counts of the injected dose. A p-value of less than 0.05 was considered significant. Uncertainties are expressed as the standard error of the mean.

[2] = in vivo; type: in vivo, mouse; conditions: male, C57/BL6, mouse, in vivo, iv, total radioactivity, Biodistribution % ID/g
Procedure: as §1

[3] = tested on: pulmonary fibrosis, low dose bleomycin, vascular leak model; assay: in vivo; parameters: species or system mouse; conditions: mouse
Procedure: Adult male C57Bl/6 mice were administered a single intratracheal dose of low dose bleomycin at 0.1 U/kg (low dose), in a total volume of 50 μl sterile saline. FTY720 was administered intraperitoneally to the mice at 1 mg/kg three times a week. To effect treatment in the low dose bleomycin, vascular leak model, the therapeutic murine antibody 3G9 (alpha-v-beta6 blocking antibody) and 1E6 (matched isotype control antibody) were used. Antibodies were injected into mice intraperitoneally three times week at a concentration of 1 mg/kg. All administrations of FTY720 and antibodies were initiated on day 0, ˜30 minutes before bleomycin challenge and continued throughout the duration of the experiments. […] The tissues were weighed, and radioactivity in each tissue was measured on a gamma counter (CobraII Auto gamma; Packard). The radioactivity in the lung was reported as percent injected dose per gram corrected with the average sham weight, which was calculated by dividing the counts of ^64Cu per average sham tissue weight in gram by the total of counts of the injected dose. The radioactivity in every other tissue was reported as percent injected dose per gram (% ID/g), which was calculated by dividing the counts of ^64Cu per gram of tissue by the total of counts of the injected dose. […] Uncertainties are expressed as the standard error of the mean.

[4] = tested on: pulmonary fibrosis, C57Bl/6 mice (low dose bleomycin, FTY720); assay: in vivo; parameters: species or system mouse
Procedure: as §1, with “Adult male C57Bl/6 mice were administered a single intratracheal dose of low dose bleomycin at 0.1 U/kg (low dose), in a total volume of 50 μl sterile saline. FTY720” for “Pulmonary fibrosis”, “administered intraperitoneally to the” for “induced in 7-8-week-old male C57/BL6”, “at 1 mg/kg three times” for “by transtracheal administration of bleomycin (BM; 2.5 U/kg) in 50 μL of PBS under direct vision using”, “week.” for “small cervical incision. Sham animals received only PBS.”

[5] = in vivo; parameters: species or system mouse; conditions: male, C57Bl/6, mouse, iv, total radioactivity, Biodistribution % ID/g
Procedure: as §1, with “Adult male C57Bl/6 mice were administered a single intratracheal dose of low dose bleomycin at 0.1 U/kg (low dose), in a total volume of 50 μl sterile saline. FTY720” for “Pulmonary fibrosis”, “administered intraperitoneally to the” for “induced in 7-8-week-old male C57/BL6”, “at 1 mg/kg three times” for “by transtracheal administration of bleomycin (BM; 2.5 U/kg) in 50 μL of PBS under direct vision using”, “week.” for “small cervical incision. Sham animals received only PBS.”

[6] = male, C57Bl/6, mouse, iv, 2.5 h

## CC(C)C[C@H](NC(=O)[C@@H]1CSSC[C@H](NC(=O)[C@H](Cc2c[nH]cn2)NC(=O)[C@H](Cc2c[nH]c3ccccc23)NC(=O)[C@H](CCCCNC(=O)CNC(=O)CCC(C(=O)O)N2CCN(CC(=O)O)CCN(CC(=O)O)CC2)NC(=O)CNC(=O)CCC(C(=O)O)N2CCN(CC(=O)O)CCN(CC(=O)O)CC2)C(=O)N[C@@H]([C@@H](C)O)C(=O)N[C@@H]([C@@H](C)O)C(=O)N[C@@H](CCCCNC(=O)CCC(C(=O)O)N2CCN(CC(=O)O)CCN(CC(=O)O)CC2)C(=O)N[C@@H](Cc2ccccc2)C(=O)N2CCC[C@H]2C(=O)N[C@@H](Cc2c[nH]cn2)C(=O)N[C@@H](Cc2c[nH]cn2)C(=O)N[C@@H](Cc2ccc(O)cc2)C(=O)N1)C(=O)N[C@@H](Cc1ccc(O)cc1)C(=O)N[C@@H](Cc1ccc(-c2ccccc2)cc1)C(N)=O (single isomer, unassigned) [CBP8]
[1]
  Biodistribution % ID/g, blood: 0.569 ± 0.102 % ID/g
  Biodistribution % ID/g, bone: 1.117 ± 0.347 % ID/g
  Biodistribution % ID/g, heart: 0.340 ± 0.032 % ID/g
  Biodistribution % ID/g, kidney: 41.063 ± 5.830 % ID/g
  Biodistribution % ID/g, liver: 1.189 ± 0.113 % ID/g
  Biodistribution % ID/g, muscle: 0.927 ± 0.422 % ID/g
  Biodistribution % ID/g, sm. intestine: 0.830 ± 0.197 % ID/g
  Biodistribution % ID/g, spleen: 0.659 ± 0.141 % ID/g
[2]; blood
  tissue uptake at 2.5 h: 0.512 ± 0.181 %ID/g
[2]; bone
  tissue uptake at 2.5 h: 1.11 ± 0.594 %ID/g
[2]; heart
  tissue uptake at 2.5 h: 0.242 ± 0.059 %ID/g
[2]; kidney
  tissue uptake at 2.5 h: 30 ± 4.59 %ID/g
[2]; liver
  tissue uptake at 2.5 h: 0.95 ± 0.127 %ID/g
[2]; muscle
  tissue uptake at 2.5 h: 0.567 ± 0.247 %ID/g
[2]; sm. intestine
  tissue uptake at 2.5 h: 0.42 ± 0.086 %ID/g
[2]; spleen
  tissue uptake at 2.5 h: 0.462 ± 0.047 %ID/g
[3]
  organ uptake between groups, except lungs, in words: not significantly different
[4]; [6]
  Biodistribution % ID/g, blood: 0.523 ± 0.062 % ID/g
  Biodistribution % ID/g, heart: 0.340 ± 0.038 % ID/g
  Biodistribution % ID/g, kidney: 50.36 ± 2.756 % ID/g
  Biodistribution % ID/g, liver: 1.998 ± 0.117 % ID/g
  Biodistribution % ID/g, small intest.: 0.690 ± 0.064 % ID/g
  Biodistribution % ID/g, spleen: 0.925 ± 0.126 % ID/g
[4]; mouse
  organ uptake between groups, except lungs, in words: not significantly different
[5]; blood
  tissue uptake at 2.5 h: 0.347 ± 0.017 %ID/g
[5]; heart
  tissue uptake at 2.5 h: 0.293 ± 0.024 %ID/g
[5]; kidney
  tissue uptake at 2.5 h: 42.7 ± 1.42 %ID/g
[5]; liver
  tissue uptake at 2.5 h: 1.44 ± 0.108 %ID/g
[5]; small intest.
  tissue uptake at 2.5 h: 0.477 ± 0.052 %ID/g
[5]; spleen
  tissue uptake at 2.5 h: 0.47 ± 0.045 %ID/g
